Key:
[1] = target: human FcRn (Sino Biological), biotinylated (UniProt P55899); test: ELISA; conditions: 37°C (incubations), PBS (concentration not stated), PBST (PBS + 0.05% (v/v) Tween 20) adjusted to pH 6.0 or pH 7.4 for the washes. The pH of the antibody dilution buffer is
[2] = target: human FcRn (Sino Biological), biotinylated (UniProt P55899); test: SPR (Biacore 3000); conditions: pH 6.0, not stated for this buffer (the HBS-EP+ used in the PCSK9 experiments contained 150 mM NaCl), HBS-EP buffer pH 6.0. Its composition is not given. The HBS-EP+ of the PCSK9 SPR section was 10 mM HEPES, 3
[3] = target: human FcRn (neonatal Fc receptor), biotinylated (human) (UniProt P55899); test: SPR; Biacore 3000; biotinylated FcRn captured on streptavidin coupled to a CM5 chip; antibody 0-10 nM in HBS-EP pH 6.0 injected at 50 ul/min, 3 min association, 3 min dissociation; regeneration with HBS-EP pH 8.0; 1:1 Langmuir model

## F0016A (alirocumab sequence, wild-type Fc)
[1]; pH 6.0
  EC50: 30.4 mg/L
[1]; pH 7.4
  EC50: 45.1 mg/L
[2]
  ka: 1.27e+06 M⁻¹ s⁻¹
  kd: 0.00617 s⁻¹

## F0016D (alirocumab Fc M253Y/S255T/T257E) M253Y;S255T;T257E
[1]; pH 6.0
  EC50: 1.75 mg/L
[1]; pH 7.4
  EC50: 8.87 mg/L
[2]
  ka: 1.05e+06 M⁻¹ s⁻¹
  kd: 0.00201 s⁻¹

## F0016A, a human IgG1 anti-PCSK9 mAb (alirocumab) (antibody)
[3]
  Kd: 4.88 nM
  koff: 0.00617 s⁻¹
  kon: 1.27e+06 M⁻¹ s⁻¹

## F0016B (alirocumab Fc T251Q/M429L) T251Q;M429L
[1]; pH 6.0
  EC50: 3.47 mg/L
[1]; pH 7.4
  EC50: 12.2 mg/L
[2]
  ka: 1.43e+06 M⁻¹ s⁻¹
  kd: 0.00302 s⁻¹

## F0016B, Fc variant T251Q/M429L of F0016A (antibody)
[3]
  Kd: 2.11 nM
  koff: 0.00302 s⁻¹
  kon: 1.43e+06 M⁻¹ s⁻¹

## F0016C (alirocumab Fc M429L/N435S) M429L;N435S
[1]; pH 6.0
  EC50: 1.56 mg/L
[1]; pH 7.4
  EC50: 16.5 mg/L
[2]
  ka: 1.36e+06 M⁻¹ s⁻¹
  kd: 0.0024 s⁻¹

## F0016D, Fc variant M253Y/S255T/T257E of F0016A (antibody)
[3]
  Kd: 1.91 nM
  koff: 0.00201 s⁻¹
  kon: 1.05e+06 M⁻¹ s⁻¹

## F0016C, Fc variant M429L/N435S of F0016A (antibody)
[3]
  Kd: 1.76 nM
  koff: 0.0024 s⁻¹
  kon: 1.36e+06 M⁻¹ s⁻¹

From PMC5560549
